Data taken from patent publication US20140017242A1, “ANTI-BRADYKININ B2 RECEPTOR (BKB2R) MONOCLONAL ANTIBODY” (Diamedica, Inc., priority 2010, published 2014).

Assays:
Wistar rats = experiment: Acute effects on blood pressure in anesthetized Wistar rats; assay type: in vivo, rat; conditions: single dose 0.5 mg/kg IV
Method: Male Wistar rats (Charles River Laboratories, Boston, Mass.) were 7.0 to 7.6 weeks old, weighed an average of 245 grams, and were maintained on Purina 5001 rat chow ad libitum. Following one week of laboratory acclimatization, treatments femoral catheter surgery and drug administration were conducted within a one-day period with measurements commencing the same day and continued during an ongoing three-week follow-up period. Treatment groups were (1) 3H3H3 (anti-BKB2R) antibody (n=8), (2) 3H3H9 (anti-BKB2R) antibody (n=8), (3) 1F2G7 (anti-BKB2R) antibody, (n=3), (4) 5F12G1 (anti-BKB2R) antibody (n=8).
Rats were anesthetized with ketamine (30 mg/kg, IM) and Inactin (50 mg/kg, IP). Cannulae were implanted in the femoral artery for blood pressure measurements and in the femoral vein for drug administration. Arterial line was filled with saline with 10 UI/ml of heparin to keep the line patent over the experiment and avoid frequent flushing of the arterial line. After 15-20 minutes of equilibration period, and once the blood pressure was stable, a baseline blood pressure was recorded for 15 minutes; then, drugs were administered and its effects on blood pressure assessed. For the antibodies a single dose (0.5 mg/kg) was administered and blood pressure recorded for three hours. All drugs were diluted in saline or PBS to achieve a total volume of 1 ml/kg. Drugs were slowly administered, on a 40-sec period on average. Animals were kept at 37° C. during the experiment. At the end of the experiments, animals were euthanized and no blood or tissues were collected.
Baseline blood pressure, length of blood pressure response to drug, maximum blood pressure change and Area Under the Curve (AUC) for the blood pressure response. Blood pressure at 1, 2 and 3 h after infusion for the antibodies.

BxPC-3 = experiment: MTT Cell Proliferation Assay, BxPC-3; assay type: cell-based, human; conditions: 120 hours of exposure
Description: This Example describes characterization of the cytotoxic activity of herein described anti-BKB2R monoclonal antibodies against a panel of cancer cell lines. BxPC-3 is a human adenocarcinoma cell line originally isolated from the pancreas (pancreatic cancer) (ATCC # CRL-1687; Tan et al., Cancer Invest. 4: 15-23, 1986. PubMed: 3754176). MV-4-11 is a human biphenotypic B myelomonocytic leukemia (mixed-lineage leukemia, MLL-AF4) cell line originally isolated from the peripheral blood (ATCC # CRL-959; Lange et al., Blood 70: 192-199, 1987. PubMed: 3496132). Hep G2 is a human hepatocellular carcinoma cell line isolated from the liver (liver cancer) (ATCC # HB-8065; Aden et al., Nature 282: 615-616, 1979. PubMed: 233137). RS4;11 is a human acute lymphoblastic leukemia (mixed-lineage leukemia, MLL-AF4) cell line isolated from the bone marrow (ATTC # CRL-1873) Stong et al., Blood 65: 21-31, 1985. PubMed: 3917311). HT-29 is a human colorectal adenocarcinoma (ATTC # HTB-38) cell line isolated from the colon (colon cancer). Fogh et al., J. Natl. Cancer Inst. 58: 209-214, 1977. PubMed: 833871). NUGC-4 is a human stomach carcinoma isolated from the stomach paragastiric lymph node (JCRB # JCRB0834; Akiyama et al., Jpn. J. Surg., 18: 438-446, 1988). […]
The anti-proliferative activity of test compounds against the indicated cell lines was evaluated in vitro using the ATCC's MTT Cell Proliferation Assay (Catalog No. 30-1010K). After the 120 hour incubation with drug (e.g., anti-BKB2R mAb or cisplatin), cell proliferation was measured by addition of MTT reagent to each well and incubation for an additional 4 hrs. […] Optical absorbance (570 nm) of the test wells was measured and then quantitated relative to control wells that received no drug. Results were expressed as percent inhibition versus compound concentration and graphed, as shown in FIGS. 19-25, for cell lines BxPC-3, MV-4;11, HepG2, RS-4;11, HT-29, NUGC-4, and PC-3, respectively.

B1: 5F12G1: murine monoclonal anti-BKB2R antibody (IgG2b,κ), VH comprising SEQ ID NO:1, VL comprising SEQ ID NO:2 (antibody, listed as Mus musculus, V domains shown)
VH: EVKLEESGGGLVQPGGSMKLSCVVSGFTFSDYWMSWVRHSPEMGLEWVAEIRLKSDNYATHYAESVKGRFTISRDDSKSRLYLQINSLRGEDTGIYYCTRDYYAMEYWGQGTSVTVSS
VL: DVVMTQTPLSLPVSLGDQASISCRSSQTIVHSNGKTYLEWYLQKPGQSPKLLIYKVSNRFSGVPDRFSGSGSGTEFTLKISRVETEDLGVYYCFQASHVPYTFGGGTKLEIK
Peak Blood Pressure Response (mm HG) (Wistar rats): 57 +/− 4 mm HG
Length (sec) of Blood Pressure Response (Wistar rats; until blood pressure returned to baseline): 168 ± 29 s
blood pressure at one hour after administration (Wistar rats; baseline 109±3 mm Hg): 95±3 mm Hg
blood pressure at three hours after administration (Wistar rats; baseline 109±3 mm Hg): 95±3 mm Hg
blood pressure at two hours after administration (Wistar rats; baseline 109±3 mm Hg): 94±3 mm Hg
EC 50 Values (ng/ml) BxPC-3 (BxPC-3): 23000 ng/mL
